Experimental data from the supplement of paper PMC9112550, “Optimization of the antimicrobial peptide Bac7 by deep mutational scanning” (BMC Biology, 2022).

test system: Escherichia coli TOP10; test: shrunken log2 fold change of peptide-encoding DNA abundance (4.5 h post-induction vs induction); higher = less antimicrobial activity (less host growth inhibition); details: time post-induction: 4.5 h; library: site-saturation at positions 5, 18, 19, 20
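Also: peptides expressed intracellularly from a pBAD plasmid library in pooled LB shake-flask culture, induced with 0.3% L-arabinose, DNA abundance read by NGS, three biological replicates, DESeq2 with apeglm shrinkage.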

Sequence	shrunken log2 fold change
RRIRVRPPRLPRPRPRPHNMPRP	-0.389
RRIRLRPPRLPRPRPRPESYPRP	-0.266
RRIRSRPPRLPRPRPRPKFTPRP	-0.436
RRIRGRPPRLPRPRPRPGFHPRP	0.296
RRIRVRPPRLPRPRPRPPPYPRP	0.233
RRIRYRPPRLPRPRPRPAESPRP	-0.00136
RRIRFRPPRLPRPRPRPNQPPRP	-0.136
RRIRWRPPRLPRPRPRPCEAPRP	0.471
RRIRSRPPRLPRPRPRPEIGPRP	0.291
RRIRFRPPRLPRPRPRPENGPRP	-0.166
RRIRMRPPRLPRPRPRPANLPRP	0.013
RRIRTRPPRLPRPRPRPCVWPRP	-0.000289
RRIRNRPPRLPRPRPRPEINPRP	0.0636
RRIRCRPPRLPRPRPRPVPCPRP	0.177
RRIRARPPRLPRPRPRPRPEPRP	0.686
RRIRTRPPRLPRPRPRPCQSPRP	0.183
RRIRLRPPRLPRPRPRPQQMPRP	-0.29
RRIRGRPPRLPRPRPRPVFDPRP	0.39
RRIRERPPRLPRPRPRPPVMPRP	0.0499
RRIRNRPPRLPRPRPRPDAGPRP	0.391
RRIRLRPPRLPRPRPRPGMCPRP	-0.0891
RRIRHRPPRLPRPRPRPCHAPRP	-0.0924
RRIRDRPPRLPRPRPRPVFQPRP	-0.134
RRIRCRPPRLPRPRPRPRQGPRP	0.436
RRIRCRPPRLPRPRPRPCMKPRP	-0.368

Sequence	shrunken log2 fold change
RRIRTRPPRLPRPRPRPQPFPRP	0.0325
RRIRKRPPRLPRPRPRPWDNPRP	0.0448
RRIRARPPRLPRPRPRPKDAPRP	0.347
RRIRLRPPRLPRPRPRPQHCPRP	-0.0642
RRIRWRPPRLPRPRPRPINPPRP	-0.247
RRIRYRPPRLPRPRPRPINRPRP	-0.018
RRIRMRPPRLPRPRPRPWMRPRP	0.7
RRIRNRPPRLPRPRPRPNHIPRP	-0.733
RRIRKRPPRLPRPRPRPEHIPRP	0.0147
RRIRCRPPRLPRPRPRPSGFPRP	-0.218
RRIRQRPPRLPRPRPRPKTIPRP	-0.184
RRIRNRPPRLPRPRPRPYNLPRP	0.00765
RRIRIRPPRLPRPRPRPSQYPRP	-0.555
RRIRSRPPRLPRPRPRPMRHPRP	3.44
RRIRMRPPRLPRPRPRPYLHPRP	-0.437
RRIRQRPPRLPRPRPRPYALPRP	-0.0202
RRIRDRPPRLPRPRPRPGNDPRP	0.0652
RRIRCRPPRLPRPRPRPWTYPRP	-0.015
RRIRNRPPRLPRPRPRPDGDPRP	-0.194
RRIRNRPPRLPRPRPRPKWWPRP	0.0325
RRIRFRPPRLPRPRPRPKFLPRP	-0.283
RRIRERPPRLPRPRPRPAIWPRP	0.129
RRIRIRPPRLPRPRPRPFVDPRP	-0.65
RRIRERPPRLPRPRPRPQTLPRP	-0.324
RRIRARPPRLPRPRPRPTFEPRP	0.42

Sequence	shrunken log2 fold change
RRIRYRPPRLPRPRPRPTKTPRP	-0.0705
RRIRQRPPRLPRPRPRPWITPRP	-0.0754
RRIRERPPRLPRPRPRPCCIPRP	0.0508
RRIRNRPPRLPRPRPRPSTMPRP	-1.15
RRIRYRPPRLPRPRPRPQIWPRP	-0.662
RRIRCRPPRLPRPRPRPTGVPRP	0.619
RRIRRRPPRLPRPRPRPDFHPRP	-0.111
RRIRQRPPRLPRPRPRPRNIPRP	-0.0833
RRIRIRPPRLPRPRPRPQYIPRP	-0.181
RRIRVRPPRLPRPRPRPISIPRP	-0.133
RRIRVRPPRLPRPRPRPIWMPRP	-0.0796
RRIRRRPPRLPRPRPRPQKFPRP	-0.0996
RRIRPRPPRLPRPRPRPRTGPRP	1.03
RRIRVRPPRLPRPRPRPMLSPRP	-0.0455
RRIRFRPPRLPRPRPRPEVMPRP	-0.0905
RRIRNRPPRLPRPRPRPTVCPRP	-0.0905
RRIRQRPPRLPRPRPRPTCFPRP	0.132
RRIRPRPPRLPRPRPRPVSHPRP	0.208
RRIRPRPPRLPRPRPRPTENPRP	0.138
RRIRVRPPRLPRPRPRPRLKPRP	3.13
RRIRYRPPRLPRPRPRPWLNPRP	-0.367
RRIRWRPPRLPRPRPRPESPPRP	0.637
RRIRDRPPRLPRPRPRPDTAPRP	-0.0593
RRIRWRPPRLPRPRPRPKGTPRP	-0.0654
RRIRQRPPRLPRPRPRPCFIPRP	-0.353

Sequence	shrunken log2 fold change
RRIRWRPPRLPRPRPRPQLLPRP	0.115
RRIRYRPPRLPRPRPRPENKPRP	-0.725
RRIRIRPPRLPRPRPRPFCNPRP	-0.553
RRIRNRPPRLPRPRPRPHFHPRP	-0.529
RRIRFRPPRLPRPRPRPPFYPRP	-0.462
RRIRPRPPRLPRPRPRPNGNPRP	-0.144
RRIRQRPPRLPRPRPRPGLMPRP	-0.0533
RRIRMRPPRLPRPRPRPTFKPRP	0.198
RRIRWRPPRLPRPRPRPYNGPRP	-0.668
RRIRYRPPRLPRPRPRPPFRPRP	-0.0932
RRIRVRPPRLPRPRPRPDRPPRP	-0.109
RRIRMRPPRLPRPRPRPISQPRP	-0.29
RRIRHRPPRLPRPRPRPFAGPRP	-0.205
RRIRARPPRLPRPRPRPLSDPRP	0.248
RRIRARPPRLPRPRPRPMHHPRP	0.112
RRIRLRPPRLPRPRPRPQWSPRP	-0.0199
RRIRPRPPRLPRPRPRPLMWPRP	0.432
RRIRGRPPRLPRPRPRPVDPPRP	0.107
RRIRHRPPRLPRPRPRPVVDPRP	-0.109
RRIRARPPRLPRPRPRPPERPRP	0.703
RRIRKRPPRLPRPRPRPGRMPRP	0.554
RRIRRRPPRLPRPRPRPLECPRP	0.0527
RRIRFRPPRLPRPRPRPNNFPRP	-0.383
RRIRIRPPRLPRPRPRPSWKPRP	-0.242
RRIRDRPPRLPRPRPRPLCFPRP	0.0676

Sequence	shrunken log2 fold change
RRIRWRPPRLPRPRPRPWREPRP	-0.0969
RRIRIRPPRLPRPRPRPGRRPRP	0.18
RRIRRRPPRLPRPRPRPHSNPRP	-0.281
RRIRARPPRLPRPRPRPDCQPRP	0.55
RRIRGRPPRLPRPRPRPKVTPRP	0.29
RRIRIRPPRLPRPRPRPQVPPRP	0.00863
RRIRNRPPRLPRPRPRPVWQPRP	0.285
RRIRARPPRLPRPRPRPVDQPRP	0.607
RRIRSRPPRLPRPRPRPNALPRP	-0.0803
RRIRPRPPRLPRPRPRPCWRPRP	0.00714
RRIRGRPPRLPRPRPRPPDFPRP	0.46
RRIRARPPRLPRPRPRPEACPRP	1.24
RRIRIRPPRLPRPRPRPQLTPRP	-0.28
RRIRRRPPRLPRPRPRPCFFPRP	0.0648
RRIRGRPPRLPRPRPRPPPWPRP	1.41
RRIRKRPPRLPRPRPRPHVCPRP	-0.00289
RRIRSRPPRLPRPRPRPKRQPRP	0.000345
RRIRFRPPRLPRPRPRPCGCPRP	-0.0484
RRIRERPPRLPRPRPRPCCLPRP	-0.57
RRIRPRPPRLPRPRPRPYAPPRP	-0.207
RRIRLRPPRLPRPRPRPQPYPRP	-0.487
RRIRTRPPRLPRPRPRPDDLPRP	0.0162
RRIRDRPPRLPRPRPRPIFLPRP	-0.205
RRIRQRPPRLPRPRPRPIRPPRP	0.0227
RRIRWRPPRLPRPRPRPRNQPRP	0.145

Sequence	shrunken log2 fold change
RRIRGRPPRLPRPRPRPMMAPRP	1.38
RRIRPRPPRLPRPRPRPLRKPRP	0.319
RRIRGRPPRLPRPRPRPPTPPRP	1.22
RRIRFRPPRLPRPRPRPTVAPRP	0.226
RRIRTRPPRLPRPRPRPVVLPRP	-0.149
RRIRERPPRLPRPRPRPFAVPRP	-0.759
RRIRLRPPRLPRPRPRPQGPPRP	-0.191
RRIRWRPPRLPRPRPRPYVNPRP	-0.355
RRIRQRPPRLPRPRPRPETLPRP	-0.0597
RRIRIRPPRLPRPRPRPERMPRP	-0.0641
RRIRCRPPRLPRPRPRPIAGPRP	0.195
RRIRRRPPRLPRPRPRPKRWPRP	0.409
RRIRSRPPRLPRPRPRPQNVPRP	-0.209
RRIRQRPPRLPRPRPRPWQNPRP	0.0546
RRIRLRPPRLPRPRPRPWSSPRP	-0.469
RRIRFRPPRLPRPRPRPKGVPRP	0.0142
RRIRLRPPRLPRPRPRPIKFPRP	-0.0676
RRIRFRPPRLPRPRPRPPCFPRP	-0.0777
RRIRERPPRLPRPRPRPEMKPRP	0.425
RRIRVRPPRLPRPRPRPHTDPRP	-0.141
RRIRWRPPRLPRPRPRPSHWPRP	0.3
RRIRARPPRLPRPRPRPIKTPRP	0.213
RRIRKRPPRLPRPRPRPKCAPRP	0.283
RRIRHRPPRLPRPRPRPVKQPRP	-0.0982
RRIRFRPPRLPRPRPRPVAQPRP	0.0899
